Assay results: publication PMC8920335

Assays:
[1] = immunoblot after BMA or MG132 treatment; settings: glycan lost; control: WT CGA
[2] = immunoblot of lysates and conditioned medium; settings: glycan lost; control: WT CGA

Sequence: CGA (glycoprotein hormone α polypeptide): N52Q
- degradation_or_half_life [1]: changes
- expression_or_secretion [2]: decreases

Sequence: CGA (glycoprotein hormone α polypeptide): N52Q/N78Q double mutant (DM)
- expression_or_secretion [2]: decreases

Sequence: CGA (glycoprotein hormone α polypeptide): N78Q
- degradation_or_half_life [1]: changes
- expression_or_secretion [2]: decreases
